PMC5632138 (Journal of molecular biology, 2017)

What was measured:
[1] = biological target: T1, Full-length ETV4 Ile372Ala (UniProt P43268 1-484, Ile372Ala); assay: BLI
T1 sequence (looked up): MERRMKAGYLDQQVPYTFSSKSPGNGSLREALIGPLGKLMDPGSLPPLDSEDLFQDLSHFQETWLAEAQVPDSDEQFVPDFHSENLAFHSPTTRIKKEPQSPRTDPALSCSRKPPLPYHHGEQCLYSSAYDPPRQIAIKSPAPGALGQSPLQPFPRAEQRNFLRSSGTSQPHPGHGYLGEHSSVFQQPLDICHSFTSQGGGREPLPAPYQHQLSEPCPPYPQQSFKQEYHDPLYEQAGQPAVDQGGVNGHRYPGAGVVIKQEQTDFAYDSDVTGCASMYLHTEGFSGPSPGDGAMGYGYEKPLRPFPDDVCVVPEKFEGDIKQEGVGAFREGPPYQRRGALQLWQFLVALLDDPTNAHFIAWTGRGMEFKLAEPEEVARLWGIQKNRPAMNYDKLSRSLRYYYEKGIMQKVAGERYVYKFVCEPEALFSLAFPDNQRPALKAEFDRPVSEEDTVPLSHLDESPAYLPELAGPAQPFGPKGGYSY

JUN/FOS heterodimers = JUN/FOS heterodimers (UniProt P05412 1-331; P01100 1-380); assay: BLI
Chain of JUN/FOS heterodimers (P05412 whole entry, chain 1 of 2): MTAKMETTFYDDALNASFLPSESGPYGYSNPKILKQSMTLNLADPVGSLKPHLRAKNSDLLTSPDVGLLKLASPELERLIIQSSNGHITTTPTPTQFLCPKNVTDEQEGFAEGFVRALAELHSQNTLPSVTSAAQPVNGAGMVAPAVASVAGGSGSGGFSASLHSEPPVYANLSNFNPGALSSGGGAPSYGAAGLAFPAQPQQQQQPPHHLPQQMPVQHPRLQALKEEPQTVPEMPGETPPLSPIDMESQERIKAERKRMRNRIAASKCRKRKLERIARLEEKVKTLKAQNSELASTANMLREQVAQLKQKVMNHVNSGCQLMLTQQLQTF
Chain of JUN/FOS heterodimers (P01100 whole entry, chain 2 of 2): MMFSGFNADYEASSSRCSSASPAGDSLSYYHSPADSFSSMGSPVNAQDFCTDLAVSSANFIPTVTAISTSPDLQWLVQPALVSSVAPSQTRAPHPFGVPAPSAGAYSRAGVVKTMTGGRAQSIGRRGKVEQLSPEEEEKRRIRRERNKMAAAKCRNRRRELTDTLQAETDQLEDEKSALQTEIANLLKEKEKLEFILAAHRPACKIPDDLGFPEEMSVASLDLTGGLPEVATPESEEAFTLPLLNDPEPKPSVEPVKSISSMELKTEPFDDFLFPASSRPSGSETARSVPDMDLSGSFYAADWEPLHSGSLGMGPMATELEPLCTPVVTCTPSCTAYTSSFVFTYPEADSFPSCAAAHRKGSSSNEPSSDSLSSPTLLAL

- binding result [1]: binds
- Kd (JUN/FOS heterodimers): 5 nM
B1: MED25 ACID (residues 391–553), biotinylated ligand for biolayer interferometry (domain or fragment, human, UniProt Q71SY5 391-553, looked up)
chain: GQQSVSNKLLAWSGVLEWQEKPKPASVDANTKLTRSLPCQVYVNHGENLKTEQWPQKLIMQLIPQQLLTTLGPLFRNSRMVQFHFTNKDLESLKGLYRIMGNGFAGCVHFPHTAPCEVRVLMLLYSSKKKIFMGLIPYDQSGFVNGIRQVITNHKQVQQQKLE
modifications: biotin (biotinylated; D-biotin added at the induction point)
